The conditions of series [1]: cited from earlier work. An excerpt: The ion-exchange chromatography was used to purify both α- and β-enolases. The method employed in this work takes advantage of different isoelectric point values calculated for human α- and β-enolases (7.38 and 7.72, respectively), muscle-specific enzymes from rat (7.45) and pig (8.8–9.0), [21]. The summary of human enolase isoenzymes purification is presented in Supplementary Table 1. The purity of the enolase preparations was examined at every purification step by SDS-PAGE and is shown on Supplementary Fig. S1.

In series [2] the test system is anti-β-enolase antibodies. The experiment in a line: ELISA test with pin-tethered peptides. To be noted: relative to N^193VIKEKYGKDATN^205-GG-pin. In kind it is binding, rabbit. The method, then:
The peptides corresponding to predicted epitopes were synthesized using NCP Block of 96 hydroxypropylmethacrylate pins (MIMOTOPES, Clayton, Victoria, Australia) according to earlier described protocol. The synthesis was performed in 96-well plates, following the one-pin – one-peptide approach. Each pin was submerged in 100 μl of the solution containing 60 mM F-moc amino acid and an equimolar amount of diisopropylcarbodiimide and N-hydroxybenzotriazole as coupling reagents. Each coupling cycle lasted 4 h., and to assess the completion of the coupling reaction; pins were tested with 10 mM bromophenol blue for the presence of free amino groups. Peptides were deprotected and pins washed with MeOH, 0.5% acetic acid in MeOH, MeOH, dried, and stored at − 20 °C. […]
The TBST soaked pins were transferred to a 96-well plate filled with 200 μl of 1% BSA in TBST and incubated for 60 min at room temperature. […] The attached antibodies were detected after incubation of the pins with goat-anti-human IgG-alkaline phosphatase (AP) conjugate (ICN Biomedicals, Aurora, Ohio, USA, diluted according to the manufacturer's recommendations). The AP activity was measured to determine the level of the bound conjugate. […] The enzymatic reaction was stopped by removal of pins from the plate, and the amount of released p-nitrophenol was measured at 406 nm in a plate reader (PerkinElmer). […]

Series [3] in a line: storage stability (enolase activity). Format: physicochemical. As to conditions: 7.5 mM imidazole-HCl pH 6.8, 2.5 mM MgSO4, 50 mM NaCl, 50% glycerol, 4 °C. The method, then: At all stages of the enzyme purification, the magnesium sulfate and temperature set at 4 °C were used to prevent the loss of the enolase activity. Magnesium ions are essential for both catalysis and stability of the enolase dimer, [39]. Purification of β-enolase from human muscle tissue was performed according to the procedure described earlier. Briefly, 110 g of frozen striated muscle was homogenized in deionized water containing 3 mM MgSO4 and protease inhibitors PMSF (phenylmethylsulfonyl fluoride) and aprotinin (2 µg/ml). Homogenization was performed in PT3100D homogenizer (DanLab, Poland) at 4 °C for 10 min. The crude protein extract was incubated at 53–54 °C for 3 min, then cooled to 4 °C and denatured proteins removed by centrifugation at 9000 g for 45 min. The supernatant was fractionated with ammonium sulfate at 4 °C, by adding solid salt in small portions and by stirring gently. The mixture was left overnight at 4 °C after reaching 60% saturation of (NH4)2SO4 and precipitated proteins were centrifuged at 9000 g for 45 min and discarded. Protein precipitation was continued by adding solid (NH4)2SO4 up to 80% saturation, and after overnight storage at 4 C the precipitated proteins were centrifuged. The pellet was dissolved in 20 mM Tris-HCl buffer pH 9.0, containing 3 mM MgSO4 and 1 mM β − mercaptoethanol and dialyzed against this buffer. […]

[4] abbreviates: muscle-specific enzymes from rat and pig.

This is an account of results in publication PMC6005794, “Experimental and bioinformatic approach to identifying antigenic epitopes in human α- and β-enolases” (Biochemistry and Biophysics Reports, 2018).

Where a chain is given by its changes, count along the chain named. Where two headings read alike, the source gives them in different places.

On to “human α-enolase: α-enolase purified from human kidney”, for which the isoelectric point in series [1] (calculated for human enolases) is reported as 7.38.

On to “substitution of E^197 in N^193VIKEKYGKDATN^205-GG-pin with alanine: α-enolase epitope 2 peptide with E^197 substituted with alanine”, for which, in series [2], the “loss of immunological activity on substitution” value was 70%.

B1: human β-enolase: β-enolase purified from human skeletal muscle (protein, UniProt P13929 2-434, looked up)
Beta-enolase: AMQKIFAREILDSRGNPTVEVDLHTAKGRFRAAVPSGASTGIYEALELRDGDKGRYLGKGVLKAVENINNTLGPALLQKKLSVVDQEKVDKFMIELDGTENKSKFGANAILGVSLAVCKAGAAEKGVPLYRHIADLAGNPDLILPVPAFNVINGGSHAGNKLAMQEFMILPVGASSFKEAMRIGAEVYHHLKGVIKAKYGKDATNVGDEGGFAPNILENNEALELLKTAIQAAGYPDKVVIGMDVAASEFYRNGKYDLDFKSPDDPARHITGEKLGELYKSFIKNYPVVSIEDPFDQDDWATWTSFLSGVNIQIVGDDLTVTNPKRIAQAVEKKACNCLLLKVNQIGSVTESIQACKLAQSNGWGVMVSHRSGETEDTFIADLVVGLCTGQIKTGAPCRSERLAKYNQLMRIEEALGDKAIFAGRKFRNPKAK
In the case of B1, the isoelectric point in series [1] (calculated for human enolases) is listed as 7.72. In series [3], the storage stability result was “several months without loss of activity”.

B2: muscle-specific enzyme from rat: rat muscle β-enolase (protein, UniProt P15429 2-434, looked up)
Beta-enolase: B1 Beta-enolase with G54S, N67H, N70K, Q78E, I143V, T271S, N311D, I421V
On to B2, for which, in series [1] (setting [4]), the isoelectric point is listed as 7.45.

B3: muscle-specific enzyme from pig: pig muscle β-enolase (protein, UniProt Q1KYT0 2-434, looked up)
Beta-enolase: AMQKIFAREILDSRGNPTVEVDLHTAKGRFRAAVPSGASTGIYEALELRDGDKSRYLGKGVLKAVEHINKTLGPALLEKKLSVVDQEKVDKFMIELDGTENKSKFGANAILGVSLAVCKAGAAEKGVPLYRHIADLAGNPDLVLPVPAFNVINGGSHAGNKLAMQEFMILPVGASSFREAMRIGAEVYHHLKGVIKGKYGKDATNVGDEGGFAPNILENNEALELLKTAIQAAGYPDKVVIGMDVAASEFYRNGKYDLDFKSPDDPSRHITGEKLGELYKSFIKNYPVVSIEDPFDQDDWKTWTSFLSGVNIQIVGDDLTVTNLKRIAQAVEKKACNCLLLKVNQIGSVTESIQACKLAQSNGWGVMVSHRSGETEDTFIADLVVGLCTGQIKTGAPCRSERLAKYNQLMRIEEALGDKAVFAGRKFRNPKAK
Take B3: in series [1] (setting [4]), the isoelectric point is 8.8–9.0.
